From patent US20220380471A1 (US Dept. of Health and Human Services, published 2022)

T1: human B7H3 (human, UniProt Q5ZPR3 29-466, limits assumed)
T1 construct: also called human B7H3 protein
T1 sequence (looked up): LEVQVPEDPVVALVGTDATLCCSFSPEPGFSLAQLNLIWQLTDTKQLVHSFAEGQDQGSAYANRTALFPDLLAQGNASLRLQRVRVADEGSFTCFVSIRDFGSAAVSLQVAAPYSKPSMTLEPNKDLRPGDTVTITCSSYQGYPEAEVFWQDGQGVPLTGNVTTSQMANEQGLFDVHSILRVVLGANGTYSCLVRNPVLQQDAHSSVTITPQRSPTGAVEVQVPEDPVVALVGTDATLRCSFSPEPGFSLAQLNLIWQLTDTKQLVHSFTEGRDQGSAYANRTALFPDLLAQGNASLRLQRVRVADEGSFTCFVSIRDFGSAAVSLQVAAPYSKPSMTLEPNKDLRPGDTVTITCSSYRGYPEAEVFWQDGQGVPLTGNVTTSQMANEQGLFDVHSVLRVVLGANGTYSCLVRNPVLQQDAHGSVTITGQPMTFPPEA

T2: monkey B7H3-His (monkey)
T2 chain: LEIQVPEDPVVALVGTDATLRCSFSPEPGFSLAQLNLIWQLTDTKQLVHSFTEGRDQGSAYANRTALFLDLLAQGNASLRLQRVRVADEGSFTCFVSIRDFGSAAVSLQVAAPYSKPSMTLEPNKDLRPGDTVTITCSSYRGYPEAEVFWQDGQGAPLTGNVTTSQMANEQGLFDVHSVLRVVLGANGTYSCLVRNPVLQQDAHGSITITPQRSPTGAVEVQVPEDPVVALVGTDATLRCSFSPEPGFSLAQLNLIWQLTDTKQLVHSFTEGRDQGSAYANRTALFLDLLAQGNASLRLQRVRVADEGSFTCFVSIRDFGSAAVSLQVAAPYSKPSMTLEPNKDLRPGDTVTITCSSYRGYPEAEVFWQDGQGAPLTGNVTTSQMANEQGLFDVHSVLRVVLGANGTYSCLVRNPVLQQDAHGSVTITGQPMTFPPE

T3: B7H3 (CD276) on MC38-CD276+ cells
T3 construct: whole, on cells; MC38-CD276KO cells served as the negative control; also called MC38-B7H3+
T3 sequence (Q5ZPR3 1-534, species assumed, looked up): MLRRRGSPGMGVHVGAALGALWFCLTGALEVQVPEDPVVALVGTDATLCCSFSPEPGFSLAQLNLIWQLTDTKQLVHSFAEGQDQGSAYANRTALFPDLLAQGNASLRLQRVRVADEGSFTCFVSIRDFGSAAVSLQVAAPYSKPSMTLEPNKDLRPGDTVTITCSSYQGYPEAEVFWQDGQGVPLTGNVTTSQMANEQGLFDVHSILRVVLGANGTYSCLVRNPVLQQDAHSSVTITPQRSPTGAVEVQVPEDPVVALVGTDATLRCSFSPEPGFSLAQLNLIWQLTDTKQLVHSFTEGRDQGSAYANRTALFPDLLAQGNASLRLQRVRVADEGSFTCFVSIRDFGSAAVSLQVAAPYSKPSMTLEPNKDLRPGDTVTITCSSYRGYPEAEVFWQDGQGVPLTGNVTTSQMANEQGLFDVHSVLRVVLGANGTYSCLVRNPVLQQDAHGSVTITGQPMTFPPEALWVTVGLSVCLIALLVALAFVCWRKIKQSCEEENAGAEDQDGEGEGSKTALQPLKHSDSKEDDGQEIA

T4: hB7H3-His (human, UniProt Q5ZPR3 29-461, limits assumed)
T4 construct: not shown: His tag
T4 sequence (looked up): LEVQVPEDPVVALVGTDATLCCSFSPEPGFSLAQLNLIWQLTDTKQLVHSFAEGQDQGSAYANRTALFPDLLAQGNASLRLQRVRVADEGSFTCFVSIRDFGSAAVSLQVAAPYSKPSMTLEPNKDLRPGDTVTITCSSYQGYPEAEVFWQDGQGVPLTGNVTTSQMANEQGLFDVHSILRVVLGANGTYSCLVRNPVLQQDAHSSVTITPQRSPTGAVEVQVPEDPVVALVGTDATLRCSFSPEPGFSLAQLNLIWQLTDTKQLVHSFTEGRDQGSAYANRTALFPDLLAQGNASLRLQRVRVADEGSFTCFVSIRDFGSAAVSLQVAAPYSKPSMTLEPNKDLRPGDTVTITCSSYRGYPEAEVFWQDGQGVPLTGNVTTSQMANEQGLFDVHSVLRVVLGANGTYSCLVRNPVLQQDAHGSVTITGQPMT

T5: B7H3 peptide 15 (human)
T5 peptide: LRPGDTVTITCSSYQGYP

T6: B7H3 peptide 10 (human)
T6 peptide: QRVRVADEGSFTCFVSIR

T7: B7H3 peptide 11 (human)
T7 peptide: SFTCFVSIRDFGSAAVSL


Tests used:
human B7H3 = target: T1, human B7H3; assay: ELISA; row Human; well 1 of 3
Procedure, shortened: (§1)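 Camel VHH nanobodies were isolated by phage panning on recombinant B7H3-Fc. After purification, their binding to immobilised B7H3 fusion proteins and non-B7H3 recombinant proteins was read out by ELISA and recorded as signal.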

monkey B7H3-His = target: T2, monkey B7H3-His; assay: ELISA; row Monkey; well 2 of 3
Procedure, shortened: as §1

B7H3 R&D = assay: ELISA; row B7H3 R&D; well 3 of 3
Procedure, shortened: as §1

[1] = target: T3, B7H3 (CD276) on MC38-CD276+ cells; assay: flow cytometry on MC38-CD276+ cells, VHH at 50 ug/ml
Irrelevant antigen = target: T8, Irrelevant antigen; assay: ELISA; row Irrelevant antigen; well 2 of 3
T8 construct: negative control
Procedure, shortened: as §1

hB7H3-His = target: T4, hB7H3-His; assay: ELISA; row B7H3-his; well 1 of 3
Procedure, shortened: as §1

B7H3 peptide 15 = target: T5, B7H3 peptide 15; assay: peptide ELISA (OD450), 18-mer peptides of human B7H3
Excerpt: (§2) FIGS. 21A-21C: G8 cross-reacts with mouse B7H3 and kills mouse cancer cells. (FIG. 21A) Binding activity of anti-B7H3 nanobodies to mouse antigen detected by flow cytometry. […] (FIG. 21C). […] A total of 48 peptides from the human B7H3 protein were designed and synthesized. Each peptide consisted of 18 amino acids and overlapped with adjacent peptides by 9 amino acids. ELISA technology was used to test binding ability of antibody to each peptide. Number indicates the OD₄₅₀ value. […] The peptide sequences are shown below the table. C4 and B12 may have a conformational epitope that couldn't be predicted by a linearized peptide library.
(§3) A total of 48 peptides from the human B7H3 protein were designed and synthesized. Each peptide consisted of 18 amino acids and overlapped with adjacent peptides by 9 amino acids. ELISA technology was used to test binding ability of the antibodies to each peptide (FIG. 21C). […] C4 and B12 may have a conformational epitope that couldn't be predicted by a linearized peptide library.

B7H3 peptide 10 = target: T6, B7H3 peptide 10; assay: as above
Excerpt: as §2, §3

B7H3 peptide 11 = target: T7, B7H3 peptide 11; assay: as above
Excerpt: as §2, §3

ELISA reading (name not given) (human B7H3) | ELISA reading (name not given) (monkey B7H3-His) | ELISA reading (name not given) (B7H3 R&D) | Positive rates [1] [%] | ELISA reading (name not given) (Irrelevant antigen) | ELISA reading (name not given) (hB7H3-His) | binding result (B7H3 peptide 15) | binding result (B7H3 peptide 10) | binding result (B7H3 peptide 11) | Binder
0.181 | 0.201 | 0.0955 | 12 | 0.0864 | 0.0603 | no binding | no binding | no binding | RWB12 (VHH, Camel VHH; tag not described; also called camel antibody RWB12) VHH: QVQLVESGGGSVQVGGSLRLSCAASGFTYNSYSVGWFRQAPGKEREGVAAINSGGSSTYYAASVKGRFTISRDNAKNTVYLQMNSLKPEDTAMYYCAARSPSPLTFQTRTLREDSYNYWGQGTQVTVSS
– | – | – | 91.5 | – | – | – | – | – | RWG4 (VHH, Camel VHH; tag not described; also called camel antibody RWG4) VHH: QVQLVQSGGGLVQPGGSLRLSCAASGFTFSVYWFYWVRQAPRQGLEWVSTIASNGSTYYSDSVKGRFTISRDNAKNTVYLQMNSLKPEDTAVYYCVSDPDYYSDYERAYKFWAQGTQVTVSS
0.136 | 0.198 | 0.0646 | 26.5 | 0.098 | 0.0693 | binds | binds | binds | RWG8 (VHH, Camel VHH; tag not described; also called camel antibody RWG8) VHH: DVQLVESGGGLVQPGGSLRLSCAASGFTFSRYWMGWFRQAPGKGVEWVSTINSGGGSTYYADSVKGRFTISRDNAKNTLYLQLNNLKTEDTAMYYCAKEQWRTGSRGQGTQVTVSS
0.976 | 1 | 0.156 | 98.8 | 0.0888 | 0.114 | no binding | no binding | no binding | RWC4 (VHH, Camel VHH; tag not described; also called camel antibody RWC4) VHH: EVQLVESGGGSVQAGGSLRLSCVASEDSTSAMCMGWFRQAPGKEREGVACINPTGEVTWYGDSVKGRFTISRDTVKKIVYLQMNSLKPEDTAMYYCAARVTYGGDWSTDTDYEYWGQGTQVTVSS
